Experimental data as given in the DeepSol protein solubility set.

Assay: soluble on expression in E. coli; label from the status in PepcDB or PDB records

Sequence	soluble on expression in E. coli
MSRHLTFHIITNVPYSNLNRDDSGTPKRVSLGGALRALHSSQSIKRGIRTKYELASLDTSIRSGKLVEEVVRVGLDLKPEVDEKLLRKGAAKIIGSLTKGESSEGESARSAWMSREEITTAAQTVIDGQEDSDFIQDNRTGSLAIAAFGRMFANAPKKNTEAALAVSPGVTTHAVTIETDYFSTVDDVREREHDSGATFLGVARYVNGTFYRTVSIDKEQLRESWSGFGQEESVDNLRELIKAIVYGAPRGKENSTAPYTLPSLVFAEEQHYRTAYSFETPVLVGKDGGFEFPTICELDRQFARARSFDKGNFGPLEVVSGTAVLEDEQFEGVQRSDLNGLIEAVVNWVTND	not soluble
MSRLRIYTESGELIKDITDPKEIAEELQKINVLFERWRANAPLKENASDEEIINAYKHEIDRLINKYGFQSYDVIAMTPEHPKKDELRQKFLKEHTHSDFEVRYFVYGDGVFYLHPNDKVYILHCTAGDLISVPPNTKHWFDMGENPNFKCIRLFTTPEGWVAEYTGSDIAEKFPKYEEVVNGLEHHHHHH	soluble
MSRNDSLISIIVPVYNVEQYLSRCVDSLVNQTYHNIEIILVDDGSPDRSGEICDEYAKKDKRVKVIHQSNGGLSDARNTALDIAKGDYLMFVDSDDWIEKKTCEILNRLASDYKADTVIFGLNFVFDSGKVIRSKRGMAGLTDKNMCMKYLIHNVARGGIFNYACNKMFSSHLFEGLRFPVGRLAEDQDVIYKLIHRSQRIYVTEQPLYNYYQRDGSITAAQYYPRLIRDRHELWLKRLDFIREYYPDLENYQIAQILGAAYVGIVKLEGNKQNGELKKKLICFSNKYILKEKELSVLDRKIKLHYYCYPLFWLYVKLFIK	not soluble
MSRPDQAKVTVAKGDIKAIAAALDMYKLDNFAYPSTQQGLEALVKKPTGNPQPKNWNKDGYLKKLPVDPWGNPYQYLAPGTKGPFDLYSLGADGKEGGSDNDADIGNWDN	soluble
MSRRRKANPTKLSENAKKLAKEVENSQEENDCDMLAKPQTPTIIIPGHMDDTPNPAGSPHDASIKSSSSTISDHTSTSATTGISDFPDILAQTEHGCSVLIDGNHLREIINSVDTQDGKQDLLSDVIRQLTSIKERLTNDESPVKDDLKEDPDDMSPMLHAGNFDSEMLLRQHELMQHQQQQMIIANMLKATQSLPLLFNGGLNYEAILNNPVLNATIAGHLPNPLASNISLLQKSISAKLAAAGNMQTVEKVETPLNLSKDTPSPTAIPQSPLSGFRLPYSLGTNYGSDGQLFNNCSPNSSGKSTPGNTSVTSEVATPRPQAKSPNHIKRPMNAFMVWARDERRKILKAYPDMHNSNISKILGSRWKGMSNSEKQPYYEEQSRLSKLHMEQHPDYRYRPRPKRTCVIDGKKVRVNEYKTIMKTKKDLMWGDEPGFSQPSDLQMDLASHVNLLNDLTQHHHQSHLLQTAE	not soluble
MSRSSLVDPSFELSDPCPDIHALFIQFDARFFGGSLACCEVKWSPRMYACAGICSYEIRGGRGGLCSIRLSKPLLTLRPRSDLVETLLHEMIHAYLFVKERNRDRDGHGPQFQAHMHRINQAGGTNITIYHSFHDEVRLYKQHWWRCSGPCRDRRPFFGYVKRSCNRAPGPNDRWWSQHQQSCGGNFLKVKEPEGYGQGKGSKRTNDKNKSGGPALKKTITPPRVTLDDFFKKDGKNSSDNSTSKSPTKPSTSLFTGSGQKLGGSSSTSSLLNSYPKATQNSGGNRLGGTSGGVSRLLPPVNFTSPSSAPVAEQVIDLGDSDDDDFQDMDDDALEISFVASDNSVICPSCNTEVMENLIHGHLDYCLG	not soluble
MSRTAVREAVKTLTAKGMVLPRPRIGTRVMPQSNWNFLDQELLTWWITEENFHQVIDHFLVMRICLEPQACLLAATVGTAEQKAHLNTLMAEMAALKENFRRERWIEVDMAWHEHIYEMSANPFLTSFASLFHSVYHTYFTSITSDTVIKLDLHQAIVDAIIQSDGDAAFKACQALLRSPDK	not soluble
MSRTILQPGQIEAAANIPPHLHQPSRDLFARRGERLLQLAEGHPMGDYLRLVAGLCRLQQALLDNPPALAPLDPERLRKSREHGMPPLAYDLLVREGAWLPWLDALLAGYPAPANAAVGAALEQLREAEEGQRKAWAIALLSGQFDLLPAALVPFLGAALQVAWSHWLLGLEEGAVVETESRTLCPACGSPPMAGMIRQGGKETGLRYLSCSLCACEWHYVRIKCSHCEESKHLAYLSLEHDGQPAEKAVLRAETCPSCQGYLKQFYLEFDRHADALADDLASLALDMRLAEDGYLRRSPNLLLAPGGE	soluble
MSRVPYGYEIIQLLEQLAPKQLAMEGDRIGLQIGTLNKPVKKVMIALDVLEDVVVEAIDQQVDLIIAHHPPLYRPLKQLLTDDGHGRMIAACIKHDIAVYAAHTNLDVADGGLNDWLAEALGLNDTAVLVPTYTEPLKKLVVYVPVTHAEVVRKALGDAGAGHIGRYSHCTFNSRGVGTFLPHEGARPFIGEQGRLEEVEEVRIETIVPASLEREAIQAMLAVHPYEEVAYDIYPLDNEGRRFGLGRIGRLPQPVTLGAFAEQVKTAFSVPAVRVVGRLDDLVQTVAVLGGDGNKFVAAAASAGADVYVTGDVYYHTAHDAQALGLHIIDPGHNVEKIMKEGVARYLITELSKRQWEAEVVASSVHTDPFQFV	not soluble
MSRVRTKTVKKASRVLIEKYYTRMTNDFHNNKRVCDEVAIIGSKPLRNKIAGYITHLMRRIERGPVRGISIKLQEEERERRDNYMPEISTVDPSQLTSIKVDTDTSDMLKAAGFNLPNVTVEDQGKNKGK	not soluble
MSRYGRYGGETKVYVGNLGTGAGKGELERAFSYYGPLRTVWIARNPPGFAFVEFEDPRDAEDAVRGLDGKVICGSRVRVELSTGMPRRSRFDRPPARRPFDPNDRCYECGEKGHYAYDCHRYSRRRRSRSRSRSHSRSRGRRYSRSRSRSRGRRSRSASPRRSRSISLRRSRSASLRRSRSGSIKGSRYFQSPSRSRSRSRSISRPRSSRSKSRSPSPKRSRSPSGSPRRSASPERMD	not soluble
MSSAAADESDAVLENLIAKEILPQTGNWEGTEEFLNRIVQVLLKYIKDQNDRDQKILEFHHPDKMQMLMDLSIPEKPESLLKLVKSCEDVLRLGVRTGHPRFFNQISCGLDLVSMAGEWLTATANTNMFTYEIAPVFILMEKSVMARMWEAVGWDPEKADGIFAPGGAIANLYAMNAARHQLWPRSKHLGMKDIPTLCCFTSEDSHYSIKSASAVLGIGADYCFNIPTDKNGKMIPEALEAKIIECKKEGLTPFFACCTAGSTVYGAFDPLERVANICERHKLWFHVDAAWGGGMLLSPEHRYKLAGIERANSVTWNPHKLMGALLQCSACLFRQDGLLFQCNQMSADYLFQQDKPYDVSFDTGDKAIQCGRHNDVFKLWLMWKSKGMEGYRQQINKLMDLANYFTRRIKETEGFELIIENPEFLNICFWYVPSKIRNLEPAEMRARLEKIAPKIKAGMMQRGTTMVGYQPDKQRPNFFRMIISNQAITREDLDFLIKEIVDIGESLE	not soluble
MSSATASIKLSNGVEMPVIGLGTWQSSPAEVITAVKTAVKAGYRLIDTASVYQNEEAIGTAIKELLEEGVVKREELFITTKAWTHELAPGKLEGGLRESLKKLQLEYVDLYLAHMPAAFNDDMSEHIASPVEDVWRQFDAVYKAGLAKAVGVSNWNNDQISRALALGLTPVHNSQVELHLYFPQHDHVDFCKKHNISVTSYATLGSPGRVNFTLPTGQKLDWAPAPSDLQDQNVLALAEKTHKTPAQVLLRYALDRGCAILPKSIQENRIKENFEVFDFSLTEEDIAKLEESKNSQRLFLQDFMTGHPEDAFAAERK	soluble
MSSCKSHVYVSAFLLCMLIPISQQVLNEHNQKLEWIVGKWRSEFSGKIFWPTVPTMTFGEELVINEAPIAKSANVQFLNFSARAWSHSTKDHFHDEWGFLTVDPVGNATLMTTGNNGFTTYETGTVSPNKLVLTLKDIGRISFSRDLPVEDLRRTFIRHDDRYMEQVIEMRTATHPKVGYLEHTRVVYTKLK	not soluble
MSSDVAGVKKSSSSSSSTSSPFMFSMLLMFSRSISSTIKISANRILLCCTSSFSTTSGFFKIESNRLTSRSSSGIFSRTACNRSCGNCFSISAVLSFCVAPLCCKSTGRFSSAIYLLIFRSTR	soluble
MSSEDRHLGSSCGSFIKTEPSSPSSGIDALSHHSPSGSSDASGGFGIALSTHANGLDSPPMFAGAGLGGNPCRKSYEDCTSGIMEDSAIKCEYMLNAIPKRLCLVCGDIASGYHYGVASCEACKAFFKRTIQGNIEYNCPATNECEITKRRRKSCQACRFMKCLKVGMLKEGVRLDRVRGGRQKYKRRLDSENSPYLNLPISPPAKKPLTKIVSNLLGVEQDKLYAMPPNDIPEGDIKALTTLCELADRELVFLINWAKHIPGFPSLTLGDQMSLLQSAWMEILILGIVYRSLPYDDKLAYAEDYIMDEEHSRLVGLLDLYRAILQLVRRYKKLKVEKEEFMILKALALANSDSMYIENLEAVQKLQDLLHEALQDYELSQRHEEPRRAGKLLWTLPLLRQTAAKAVQHFYSVKLQGKVPMHKLFLEMLEAKV	soluble
MSSEEDEIAELSKDTPPEKKRKISESGASSSSFIPESTSEESLSLKSKKSGSRKRILTASSSTNSIAMKSSASWIQEKDTPINKSDEEKSIAESLLIANFSNEQLDRYTAFKRSRFNRRIIKNVITRTTGQIPSDPLALAVAGLTKMFIGDLVEEAVELRGALNEQDRPVQPYHITRAFDKLLAEGKLWPPYGAKY	not soluble
MSSFDKNDERAQLMVPKSINEGKVVKLSQKTLVTKKIERQVVPEEKYIAGLDKIIEKDYFPHLKKMQAQKEYLEAVANKDINKIKELQMKFCSTGSVRTDRSFRTPITTRSTTEAPDVSSFDADTPGPSSASTSSAHDWMQSPMPFANEEGDNEALNRKRKKKKEETLTSYLNKYTSEDNASFEELAKVMREREDARRPWVYKAEEEHNKNLVTRQAIAAEADVQLALKHAVDADDNRPLNVDNWAYKAWNTVLFNPDGAALTPAEIADAARKQQTEINKRGTRFPDSGKLKPSDEAMTRAAVSHALANAGKVDFLGNEVTPANSFKLLETPNPNPDDMDSPLMTWGEIDGTPFRLDAPDVTEHSLPGAAPVFKIPEVPYREKIAQSMNDSIAAKYRDKRKVAMRAAEGAHRTPGFGSKRVSDKLAQLSPAAQKLATKKLGLKMLPAHKSPFASPKIMSNWSRPSSSKRSTTPGSAWSRGSTTPGSSWSQGAQTPGTPGIESMIRRKGDNVGPSTSAGAADRANAGDFF	not soluble
MSSFFPLPPAIGKSTGCGVRDESQSLVVWAIEDYSIPESIDPDMINLKIETAIVKKFNLRSSAVVTTWIFGSAENAWLAKSKVKLWESEFRVSLHKGGDKRARLNMMLADVIYYVWNWKAPTNLAVLTENKEEMEQDPKFFRFRQALENKGFFVAVEHPETLINQETAVEDPPDDSPIPYYPSDNPQKLAFWYKEDSEAYRAKYKQVRGTKRTI	soluble
MSSFHATTIFAVQHKGRSAMSGDGQVTFGQAVVMKHTARKVRKLFNGKVLAGFAGSVADAFTLFEKFEAKLEEYNGNLKRAAVELAKEWRSDKVLRKLEAMLIVMNQDTLLLVSGTGEVIEPDDGILAIGSGGNYALAAGRALKKHAGESMSASEIARAALETAGEICVYTNDQIILEELE	soluble
MSSGFAVSARSLALMATLAFAAPALAQQYGGEVDPEIRIQQLEDRLRTLTGQNEELQHRNRRLEEQVRQLQSGAGAPGAQQPAPNQATTPPAAPQQPYSQPAQQPAYGQQQPGYGQPQAPMVQPQPAAPQGGGRRGDAFDPSRDPNAPGVPRALGGGQLPMEQSGGMPAGRAAGAPMDLSNGNGGYVQGGYPQGGAPSAAKQPPAATAGGALTTQPPSQTPRDEFDLGIGYMQRRDYALAEETMRNFAQKYPDNPLTADAQYWLGESFFQRQMYRDAAEAFLAVTSKHEKSGKAPDALLRLGQSLSALKEKEAACAALGEIGRKYPQASSSVKKAVDREQKKLKC	not soluble
